Drawing on patent US20060210973A1, this text covers percentage of co-transfected PC12 cells with neurites after NGF for one substance.

This test has as its target HA-TrioGEFD2 (pMTHA-TrioGEFD2) (UniProt O75962). The experiment in a line: cell-based or functional assay.

GFP alone displayed a percentage of co-transfected PC12 cells with neurites after NGF of 16%.
